These results are taken from PMC6043480, “Molecular basis for the inhibition of the methyl-lysine binding function of 53BP1 by TIRR” (Nature Communications, 2018).

B1: 53BP1 tandem Tudor domain (residues 1459-1634) (domain or fragment, human, UniProt Q12888 1459-1634, looked up)
chain: RSDSPEIPFQAAAGPSDGLDASSPGNSFVGLRVVAKWSSNGYFYSGKITRDVGAGKYKLLFDDGYECDVLGKDILLCDPIPLDTEVTALSEDEYFSAGVVKGHRKESGELYYSIEKEGQRKWYKRMAVILSLEQGNRLREQYGLGPYEAVTPLTKAADISLDNLVEGKRKRRSNVS
notes: also called 53BP1 TTD; TTD; source: E. coli BL21 (DE3), purified (Ni-chelating Sepharose, 3C protease, Source 15Q, Superdex 200 Increase); not shown: His6, N-terminal, cleaved
B2: Tudor interacting repair regulator (TIRR), residues 6-211 (domain or fragment, human, UniProt Q9BRJ7 6-211, looked up)
chain: VPELKQISRVEAMRLGPGWSHSCHAMLYAANPGQLFGRIPMRFSVLMQMRFDGLLGFPGGFVDRRFWSLEDGLNRVLGLGLGCLRLTEADYLSSHLTEGPHRVVAHLYARQLTLEQLHAVEISAVHSRDHGLEVLGLVRVPLYTQKDRVGGFPNFLSNAFVSTAKCQLLFALKVLNMMPEEKLVEALAAATEKQKKALEKLLPASS
notes: two TIRR molecules in the crystal; also called NUDT16L1; wild-type TIRR; source: E. coli BL21 (DE3), purified (Ni-chelating Sepharose, 3C protease, Superdex 200 Increase); not shown: His6, N-terminal, cleaved

Data set [1] addresses B2. Description: AUC; sedimentation velocity, 60,000 rpm, 20 °C, 10 mM Tris-HCl pH 8.0, 200 mM NaCl, 3 mM DTT; TIRR 53 μM, TTD 35 μM, mixture 20 μM TIRR with 20 μM TTD. Conditions: both partners purified.
Data set [2] deals with B2. In words: ITC; 25 °C, PBS pH 7.0 with 140 mM NaCl; 150 μM 53BP1 TTD injected into 15 μM TIRR or its mutants; 80-100 μM TTD mutant into 8-10 μM TIRR; 750 μM H4K20me2 peptide into 37.5 μM TTD. Conditions: both partners purified.
Data set [3] deals with the molecule itself. In words: AUC; sedimentation velocity, 60,000 rpm, 20 °C, 10 mM Tris-HCl pH 8.0, 200 mM NaCl, 3 mM DTT; TIRR 53 μM, TTD 35 μM, mixture 20 μM TIRR with 20 μM TTD.
The target in data set [4] is B1. In words: ITC; 25 °C, PBS pH 7.0 with 140 mM NaCl; 150 μM 53BP1 TTD injected into 15 μM TIRR or its mutants; 80-100 μM TTD mutant into 8-10 μM TIRR; 750 μM H4K20me2 peptide into 37.5 μM TTD. Conditions: both partners purified. In general terms: ITC needs no label: the signal is the heat of the interaction.

Ends that are not written are not given here. dimethyl = dimethyl-lysine

What is called stoichiometry N is a count of units in the complex or per binding partner. Broadly, the Kd is the concentration at which binding is half-saturated. Read a low Kd as higher affinity. B1: the “stoichiometry N” value in data set [1] is 1. This molecule yielded an equilibrium dissociation constant (Kd) in data set [2] of roughly 780 nM.

For the molecule B2, in data set [3], the “stoichiometry N” value is 2.

B3: H4K20me2 peptide (residues 12-25) (peptide, UniProt P62805 13-26, looked up)
peptide: KGGAKRHRK(dimethyl)VLRDN
notes: histone H4, residues 12-25, dimethylated on lysine 20; Peptide used in ITC
For B3, the binding result in data set [4] is given as “binds”.
